In the nanobody polyreactivity screen of Harvey et al. (2022):

Assay: yeast display, Sf9 membrane polyspecificity reagent, FACS + sequencing; frameworks hold sequencing errors
Procedure, shortened: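 Genes from sorted yeast were amplified by colony PCR, read by MiSeq 2 × 250 sequencing and filtered on CDR length. These cells carried a synthetic nanobody library in Saccharomyces cerevisiae BJ5465 and were sorted by FACS into low and high (top ~1%) gates on anti-HA and streptavidin fluorescence. Polyreactivity is labelled according to the gate of origin.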

Sequence | polyreactivity (PSR sort gate)
QVQLVESGGGLFQAGGSLRISCAASGRIFTKNTMGWYRQPPWKERELFAAIRSRAGSTYYADSVKGRFTISRDNAKNTVYLQMNSLKPEDTAFYYCAVPWFRSVDFDYWGQGTQVTVSS | low polyreactivity
QVQLVESGGGLFQAGGSLRLICAASGSTFRFYAMGWYRQAPAKERELVAVIRSTGSTYYADSVKGRFTISRDNAKNTVYLQMYSLNPDDTAVYYCAAQNAWWSNGRSYDYWGQGTQVTVSS | low polyreactivity
QVQLVESGGGLFQAGGSLRLSCAASGFIFRSNAMGGYRHAPGKERELVAAISGGGITYYADSVKGRFTISRDNAKNTVYLQMNSLKPEDTAVYYCAVRWYFKTHWGGYHPYEYCGQGTQVTVSS | high polyreactivity
QVQLVESGGGLFQAGGSLRLSCAASGFTFTRYAMGWYRQAPGKERELVATITKRGGSTYYADSVKGRFTISRDNAKNTVYLQMNRLKPEDTAVYYCAADGASRALYDYWGQGTQVTVSS | high polyreactivity
QVQLVESGGGLFQAGGSLRLSCAASGGIFDVYDMGWYRQAPGKERELVAAISEKGGSTYYADSVKGRFTISRDNAKNTGYLQMNSLKPEDTAVYYCAADYVCLSVFSYWAWYDYWGQGTQVNVSS | low polyreactivity
QVQLVESGGGLFQAGGSLRLSCAASGGIFYGNVMGWYRQAPGKERELVADITSVGSTYYADSVKGRFTISRDNAKNTVYLQMNSLIPEDTAVYYCAAEPDHVADSHSGYDYWGQGTQVTVSS | low polyreactivity
QVQLVESGGGLFQAGGSLRLSCAASGIIFTSYAMGWYRQAPGKESEFVAAITRSGSRTYYADSVKGRFTISRDNAKNTVYLQMNRLKPEDTAVYYCAARTYHDSSDSYAGGYWGQGTQVTVSS | low polyreactivity
QVQLVESGGGLFQAGGSLRLSCAASGIIFYDYAMGRYRQPPAKERELVAAITSNGDNTYYADSVKWRFTISRDNAKNTVYLQMNILKPEDTAVYYCAVDGSFAADFDNYLEEYGYWGQGTQVTVSS | low polyreactivity
QVQLVESGGGLFQAGGSLRLSCAASGITFKGYTMGWYRQAPGKERELVATISRGGRTYADSVKGRFTISRDNAKNTVLLQMNSLKPEDTAVYYCAADKYWAQNDYWGQGTQVTVSS | low polyreactivity
QVQLVESGGGLFQAGGSLRLSCAASGRIFGWYAMGWYRQAPGKDRELVAAMSSSTSTYYADSVKGRFTISRDNEKNTVYLEMNSLKPEDTAVYYCNADWYYQRGQNYWFRYDYWGQGTQVTVCS | high polyreactivity
QVQLVESGGGLFQAGGSLRLSCAASGRIFGYNSMGWDRQAPGKERELVAAIRRRGGTTYYADSVKGRFTISRDNAKNTVYLQMNSLKPEDNAVYYCAADLTFSYRQSAGRYSTYGYWGQGTQVTVSS | high polyreactivity
QVQLVESGGGLFQAGGSLRLSCAASGRTFAIYDMGWYRQAPGKEREVVAAIDYSDGSTYYADSVKGRFTISRDNAKNTVYLQMNSLKPEDTAVYYCAADYDAIYLWWGYDYWGQGTQVTVSS | low polyreactivity
QVQLVESGGGLFQAGGSLRLSCAASGRTFEINAMGWYRQAPGKERELVARISWSGGRTYYADSVKGRFTISRDNAKNTVYLQMNSLKPEDTAVYYCAAVLYSGGNYDSWGQGTQVTGSS | high polyreactivity
QVQLVESGGGLFQAGGSLRLSCAASGRTFGKNAMGWYRQAPGKEREFVAAITSRGGSTYYADSVKGRFTISRDNAKNTVYLQMNSLNPEDTGVYYCNREYKRPSQRNEHFYCGQGTQVTVSS | low polyreactivity
QVQLVESGGGLFQAGGSLRLSCAASGRTFGYNVMGWYRQATGKERELVAGITSSGSTNYADSVKGRFTISRDNVKNTFYLQMNSLKPEETAVYYCAAGDRRWGFQVGYWGQGTQVTVSS | high polyreactivity
QVQLVESGGGLFQAGGSLRLSCAASGRTFRDYVMGWYRKATGKERELVAAISTRGASTYYADSVKGRFTISRDNAKNTVDLQMNSLKPEDTAVYYCAARSTRRGNEYDYWGQGTQVTGSS | high polyreactivity
QVQLVESGGGLFQAGGSLRLSCAASGRTFRSYAMGWYRQAPGKERELVAAISTGGSTYYADSVKGRFTISRDNAKNTVYLQMNSLKPEDTAVYYCAAEFNAYTPAGLWYTYYYWGQGTQVTVSS | high polyreactivity
QVQLVESGGGLFQAGGSLRLSCAASGRTFTWYAMGWYRQAPGKERELVAAISFSGGSTYYADSVKGRFTISRDNAKNTVYLQMNSLKPEDTAVYYCARPSGDAWEGPRMDYWGQGTQVTVSS | low polyreactivity
QVQLVESGGGLFQAGGSLRLSCAASGRTFWRYAMGWSRQAPGKERELVAAITSGGGSTFYADSVKGRFTISRDYAKNTVDLQMNILKAEVTAVYYCNREYRWGNSLYSRYDYWGQGTQVTVSS | high polyreactivity
QVQLVESGGGLFQAGGSLRLSCAASGRTIQTYTMGRYRQAPGKERELYAVITTRGGRTYYADSVKGRFTISRDNAKNTFYLQINRLKPEDTGVYYCIKGIPTRSVRSYDYWGQGTQVTVSS | high polyreactivity
QVQLVESGGGLFQAGGSLRLSCAASGSIFAGYAMGWSRQAPGNERELVATITSSSRTNYADSVKGRFTISRDNAKNTVYLQMNSLKPEDTAVYYCAATSFSVRFTRYYYWGQGTQVTVSS | high polyreactivity
